{
  "source": "patent US4347323A",
  "about": "“Glycerol kinase from Streptomyces canus” (Toyo Jozo Kabushiki Kaisha, priority 1979, dated 1982)",
  "origin": "cited, not measured here",
  "molecules": {"B1": {"name": "E.Co-GK: known glycerol kinase of Escherichia coli (protein, UniProt P0A6F3 2-502, looked up)", "Glycerol kinase": "TEKKYIVALDQGTTSSRAVVMDHDANIISVSQREFEQIYPKPGWVEHDPMEIWATQSSTLVEVLAKADISSDQIAAIGITNQRETTIVWEKETGKPIYNAIVWQCRRTAEICEHLKRDGLEDYIRSNTGLVIDPYFSGTKVKWILDHVEGSRERARRGELLFGTVDTWLIWKMTQGRVHVTDYTNASRTMLFNIHTLDWDDKMLEVLDIPREMLPEVRRSSEVYGQTNIGGKGGTRIPISGIAGDQQAALFGQLCVKEGMAKNTYGTGCFMLMNTGEKAVKSENGLLTTIACGPTGEVNYALEGAVFMAGASIQWLRDEMKLINDAYDSEYFATKVQNTNGVYVVPAFTGLGAPYWDPYARGAIFGLTRGVNANHIIRATLESIAYQTRDVLEAMQADSGIRLHALRVDGGAVANNFLMQFQSDILGTRVERPEVREVTALGAAYLAGLAVGFWQNLDELQEKAVIEREFRPGIETTERNYRYAGWKKAVKRAMAWEEHDE"}},
  "settings": "known glycerol kinases",
  "data": [
    {"molecule": "B1", "values": [
      {"measurement": "pH stability", "value": "6.5-7 pH"}
    ]}
  ]
}
